The target of assay [1] is T1, Human AXL-Fc containing the entire extracellular domain of human AXL (Homo sapiens, UniProt P30530).
T1 construct: AXL receptor tyrosine kinase, human, entire extracellular domain (two Ig-like and two fibronectin type III domains); Dimer through the C-terminal Fc; also called dimeric AXL-Fc; source: bought: Evitria (Switzerland); not shown: Fc, C-terminal, kept
Put plainly: SEC-SAXS; SWING beamline (SOLEIL), HPLC mode; BioSEC-3 300 or BioSEC-5 1000 column in PBS or 10 mM histidine, 150 mM NaCl, pH 6; proteins alone and mixed, in solution. The conditions noted are these: both partners purified. For orientation: Size exclusion chromatography separates by hydrodynamic size, large species first.

The target of assay [2] is T2, Monomeric sAXL, the soluble extracellular domain of AXL (human, UniProt P30530).
T2 construct: AXL receptor tyrosine kinase, human, soluble extracellular domain released from AXL-Fc by papain; also called monomeric AXL extracellular domain; source: papain digestion of AXL-Fc (Evitria), followed by protein A purification; not shown: Fc, C-terminal, cleaved
T2 sequence (P30530 26-451): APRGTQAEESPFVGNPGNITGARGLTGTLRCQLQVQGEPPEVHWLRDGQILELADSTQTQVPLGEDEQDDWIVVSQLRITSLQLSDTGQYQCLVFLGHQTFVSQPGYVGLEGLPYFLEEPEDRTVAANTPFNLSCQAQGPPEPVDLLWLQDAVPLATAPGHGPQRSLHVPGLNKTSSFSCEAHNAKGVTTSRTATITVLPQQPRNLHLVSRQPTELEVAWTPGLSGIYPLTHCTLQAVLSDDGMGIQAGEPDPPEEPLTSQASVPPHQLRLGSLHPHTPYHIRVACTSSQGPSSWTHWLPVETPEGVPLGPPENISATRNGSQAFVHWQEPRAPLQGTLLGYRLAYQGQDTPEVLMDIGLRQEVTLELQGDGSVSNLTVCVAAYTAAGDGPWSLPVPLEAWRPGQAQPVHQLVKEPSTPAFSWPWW
The assay is described as above. The conditions noted are these: both partners purified.

What is called stoichiometry N is the number of molecules, sites or subunits per partner or assembly.

T1 sequence (P30530 26-451): as above

B1: Fab fragment of tilvestamab (Fab, V domains shown)
VH: EVQLVESGGGLVQPGGSLRLSCAASGYSFTDFYINWVRQAPGKGLEWVARIFPGGDNTYYNEKFKGRFTLSADTSKSTAYLQMNSLRAEDTAVYYCARRGLYYAMDYWGQGTLVTVSS
VL: DIQMTQSPSSLSASVGDRVTITCRSSQSLVHSNGIPYLHWYQQKPGKAPKLLIYRVSNRFSGVPSRFSGSGSGTDFTLTISSLQPEDFATYYCSQGTHVPPTFGQGTKVEIK
notes: heavy chain (HC) of the Fab; light chain (LC) of the Fab; also called tilvestamab Fab; source: papain proteolysis of tilvestamab (immobilized papain), MabSelect SuRe column
Consider B1, for which the “stoichiometry N” value in assay [1] is 1 Fab per AXL-Fc chain (2:2); in assay [2], 1 Fab per sAXL (1:1).

Source of the values: PMC12809806, “Structural Analysis of Tilvestamab in Complex with AXL” (ACS Omega, 2025).
